US20210301025A1 (published 2021)
Positions count from the first letter of the chain named. Numbers in names are those of the source.

Tests used:
[1] = target: T1, EGFR (form used in the assay not stated) (human, UniProt P00533 25-645, limits assumed); test: ELISA, NEM conjugate, 100 nM
[2] = target: T1, EGFR (form used in the assay not stated); test: ELISA, NEM conjugate, 500 nM
[3] = target: T1, EGFR (form used in the assay not stated); test: ELISA, NEM conjugate, 10 nM

B1: P54AR4-83v2 A3C, NEM conjugate (designed binder, not shown: small tags and cut ends)
chain: LPCPKNLVVSEVTEDSARLSWDDPWAFYESFLIQYQESEKVGEAIVLTVPGSERSYDLTGLKPGTEYTVSIYGVHNVYKDTNMRGLPLSAIFTT
modifications: N-ethyl maleimide (NEM) on Cys 3
[1]
  binding relative to P54AR4-83v2 parent: 0.88 ratio
[2]
  binding relative to P54AR4-83v2 parent: 0.82 ratio
[3]
  binding relative to P54AR4-83v2 parent: 0.34 ratio

B2: P54AR4-83v2 E39C, NEM conjugate (designed binder, not shown: small tags and cut ends)
chain: B1 chain with C3A, E39C
modifications: N-ethyl maleimide (NEM) on Cys 39
[1]
  binding relative to P54AR4-83v2 parent: 1 ratio
[2]
  binding relative to P54AR4-83v2 parent: 0.9 ratio
[3]
  binding relative to P54AR4-83v2 parent: 0.9 ratio

B3: P54AR4-83v2 D15C, NEM conjugate (designed binder, not shown: small tags and cut ends)
chain: B1 chain with C3A, D15C
modifications: N-ethyl maleimide (NEM) on Cys 15
[1]
  binding relative to P54AR4-83v2 parent: 1.09 ratio
[2]
  binding relative to P54AR4-83v2 parent: 0.97 ratio
[3]
  binding relative to P54AR4-83v2 parent: 0.98 ratio

B4: P54AR4-83v2 L7C, NEM conjugate (designed binder, not shown: small tags and cut ends)
chain: B1 chain with C3A, L7C
modifications: N-ethyl maleimide (NEM) on Cys 7
[1]
  binding relative to P54AR4-83v2 parent: 1 ratio
[2]
  binding relative to P54AR4-83v2 parent: 0.9 ratio
[3]
  binding relative to P54AR4-83v2 parent: 0.35 ratio

B5: P54AR4-83v2 G85C, NEM conjugate (designed binder, not shown: small tags and cut ends)
chain: B1 chain with C3A, G85C
modifications: N-ethyl maleimide (NEM) on Cys 85
[1]
  binding relative to P54AR4-83v2 parent: 0.02 ratio
[2]
  binding relative to P54AR4-83v2 parent: 0.29 ratio
[3]
  binding relative to P54AR4-83v2 parent: 0.19 ratio

B6: P54AR4-83v2 L32C, NEM conjugate (designed binder, not shown: small tags and cut ends)
chain: B1 chain with C3A, L32C
modifications: N-ethyl maleimide (NEM) on Cys 32
[1]
  binding relative to P54AR4-83v2 parent: 1.01 ratio
[2]
  binding relative to P54AR4-83v2 parent: 0.91 ratio
[3]
  binding relative to P54AR4-83v2 parent: 0.87 ratio

B7: P54AR4-83v2 I91C, NEM conjugate (designed binder, not shown: small tags and cut ends)
chain: B1 chain with C3A, I91C
modifications: N-ethyl maleimide (NEM) on Cys 91
[1]
  binding relative to P54AR4-83v2 parent: 1.01 ratio
[2]
  binding relative to P54AR4-83v2 parent: 1 ratio
[3]
  binding relative to P54AR4-83v2 parent: 0.9 ratio

B8: P54AR4-83v2 G42C, NEM conjugate (designed binder, not shown: small tags and cut ends)
chain: B1 chain with C3A, G42C
modifications: N-ethyl maleimide (NEM) on Cys 42
[1]
  binding relative to P54AR4-83v2 parent: 0.99 ratio
[2]
  binding relative to P54AR4-83v2 parent: 0.9 ratio
[3]
  binding relative to P54AR4-83v2 parent: 0.84 ratio

B9: P54AR4-83v2 K62C, NEM conjugate (designed binder, not shown: small tags and cut ends)
chain: B1 chain with C3A, K62C
modifications: N-ethyl maleimide (NEM) on Cys 62
[1]
  binding relative to P54AR4-83v2 parent: 0.73 ratio
[2]
  binding relative to P54AR4-83v2 parent: 0.61 ratio
[3]
  binding relative to P54AR4-83v2 parent: 0.64 ratio

B10: P54AR4-83v2 A26C, NEM conjugate (designed binder, not shown: small tags and cut ends)
chain: B1 chain with C3A, A26C
modifications: N-ethyl maleimide (NEM) on Cys 26
[1]
  binding relative to P54AR4-83v2 parent: 1.06 ratio
[2]
  binding relative to P54AR4-83v2 parent: 0.95 ratio
[3]
  binding relative to P54AR4-83v2 parent: 0.95 ratio

B11: P54AR4-83v2 E53C, NEM conjugate (designed binder, not shown: small tags and cut ends)
chain: B1 chain with C3A, E53C
modifications: N-ethyl maleimide (NEM) on Cys 53
[1]
  binding relative to P54AR4-83v2 parent: 1.02 ratio
[2]
  binding relative to P54AR4-83v2 parent: 0.91 ratio
[3]
  binding relative to P54AR4-83v2 parent: 0.91 ratio

B12: P54AR4-83v2 L86C, NEM conjugate (designed binder, not shown: small tags and cut ends)
chain: B1 chain with C3A, L86C
modifications: N-ethyl maleimide (NEM) on Cys 86
[1]
  binding relative to P54AR4-83v2 parent: 0.96 ratio
[2]
  binding relative to P54AR4-83v2 parent: 0.92 ratio
[3]
  binding relative to P54AR4-83v2 parent: 0.77 ratio

B13: P54AR4-83v2 G64C, NEM conjugate (designed binder, not shown: small tags and cut ends)
chain: B1 chain with C3A, G64C
modifications: N-ethyl maleimide (NEM) on Cys 64
[1]
  binding relative to P54AR4-83v2 parent: 1.42 ratio
[2]
  binding relative to P54AR4-83v2 parent: 1.36 ratio
[3]
  binding relative to P54AR4-83v2 parent: 1.28 ratio

B14: P54AR4-83v2 E43C, NEM conjugate (designed binder, not shown: small tags and cut ends)
chain: B1 chain with C3A, E43C
modifications: N-ethyl maleimide (NEM) on Cys 43
[1]
  binding relative to P54AR4-83v2 parent: 1.04 ratio
[2]
  binding relative to P54AR4-83v2 parent: 0.92 ratio
[3]
  binding relative to P54AR4-83v2 parent: 0.68 ratio

B15: P54AR4-83v2 G60C, NEM conjugate (designed binder, not shown: small tags and cut ends)
chain: B1 chain with C3A, G60C
modifications: N-ethyl maleimide (NEM) on Cys 60
[1]
  binding relative to P54AR4-83v2 parent: 1.02 ratio
[2]
  binding relative to P54AR4-83v2 parent: 0.93 ratio
[3]
  binding relative to P54AR4-83v2 parent: 0.86 ratio

B16: P54AR4-83v2 K5C, NEM conjugate (designed binder, not shown: small tags and cut ends)
chain: B1 chain with C3A, K5C
modifications: N-ethyl maleimide (NEM) on Cys 5
notes: also called KSC
[1]
  binding relative to P54AR4-83v2 parent: 1.06 ratio
[2]
  binding relative to P54AR4-83v2 parent: 0.92 ratio
[3]
  binding relative to P54AR4-83v2 parent: 0.61 ratio

B17: P54AR4-83v2 G73C, NEM conjugate (designed binder, not shown: small tags and cut ends)
chain: B1 chain with C3A, G73C
modifications: N-ethyl maleimide (NEM) on Cys 73
[1]
  binding relative to P54AR4-83v2 parent: 0.02 ratio
[2]
  binding relative to P54AR4-83v2 parent: 0.21 ratio
[3]
  binding relative to P54AR4-83v2 parent: 0 ratio

B18: P54AR4-83v2 K40C, NEM conjugate (designed binder, not shown: small tags and cut ends)
chain: B1 chain with C3A, K40C
modifications: N-ethyl maleimide (NEM) on Cys 40
[1]
  binding relative to P54AR4-83v2 parent: 0.95 ratio
[2]
  binding relative to P54AR4-83v2 parent: 0.86 ratio
[3]
  binding relative to P54AR4-83v2 parent: 0.88 ratio

B19: P54AR4-83v2 H75C, NEM conjugate (designed binder, not shown: small tags and cut ends)
chain: B1 chain with C3A, H75C
modifications: N-ethyl maleimide (NEM) on Cys 75
[1]
  binding relative to P54AR4-83v2 parent: 0.19 ratio
[2]
  binding relative to P54AR4-83v2 parent: 0.25 ratio
[3]
  binding relative to P54AR4-83v2 parent: 0.07 ratio

B20: P54AR4-83v2 G51C, NEM conjugate (designed binder, not shown: small tags and cut ends)
chain: B1 chain with C3A, G51C
modifications: N-ethyl maleimide (NEM) on Cys 51
[1]
  binding relative to P54AR4-83v2 parent: 1.03 ratio
[2]
  binding relative to P54AR4-83v2 parent: 0.92 ratio
[3]
  binding relative to P54AR4-83v2 parent: 0.88 ratio

B21: P54AR4-83v2 A90C, NEM conjugate (designed binder, not shown: small tags and cut ends)
chain: B1 chain with C3A, A90C
modifications: N-ethyl maleimide (NEM) on Cys 90
[1]
  binding relative to P54AR4-83v2 parent: 1.05 ratio
[2]
  binding relative to P54AR4-83v2 parent: 1.01 ratio
[3]
  binding relative to P54AR4-83v2 parent: 0.94 ratio

B22: P54AR4-83v2 E11C, NEM conjugate (designed binder, not shown: small tags and cut ends)
chain: B1 chain with C3A, E11C
modifications: N-ethyl maleimide (NEM) on Cys 11
[1]
  binding relative to P54AR4-83v2 parent: 1.08 ratio
[2]
  binding relative to P54AR4-83v2 parent: 0.95 ratio
[3]
  binding relative to P54AR4-83v2 parent: 0.9 ratio

B23: P54AR4-83v2 D80C, NEM conjugate (designed binder, not shown: small tags and cut ends)
chain: B1 chain with C3A, D80C
modifications: N-ethyl maleimide (NEM) on Cys 80
[1]
  binding relative to P54AR4-83v2 parent: 0.97 ratio
[2]
  binding relative to P54AR4-83v2 parent: 0.91 ratio
[3]
  binding relative to P54AR4-83v2 parent: 0.7 ratio

B24: P54AR4-83v2 D22C, NEM conjugate (designed binder, not shown: small tags and cut ends)
chain: B1 chain with C3A, D22C
modifications: N-ethyl maleimide (NEM) on Cys 22
[1]
  binding relative to P54AR4-83v2 parent: 1.02 ratio
[2]
  binding relative to P54AR4-83v2 parent: 0.9 ratio
[3]
  binding relative to P54AR4-83v2 parent: 0.84 ratio

B25: P54AR4-83v2 E14C, NEM conjugate (designed binder, not shown: small tags and cut ends)
chain: B1 chain with C3A, E14C
modifications: N-ethyl maleimide (NEM) on Cys 14
[1]
  binding relative to P54AR4-83v2 parent: 1.27 ratio
[2]
  binding relative to P54AR4-83v2 parent: 1.15 ratio
[3]
  binding relative to P54AR4-83v2 parent: 1.11 ratio

B26: P54AR4-83v2 M83C, NEM conjugate (designed binder, not shown: small tags and cut ends)
chain: B1 chain with C3A, M83C
modifications: N-ethyl maleimide (NEM) on Cys 83
[1]
  binding relative to P54AR4-83v2 parent: 0.04 ratio
[2]
  binding relative to P54AR4-83v2 parent: 0.24 ratio
[3]
  binding relative to P54AR4-83v2 parent: 0.07 ratio

B27: P54AR4-83v2 F27C, NEM conjugate (designed binder, not shown: small tags and cut ends)
chain: B1 chain with C3A, F27C
modifications: N-ethyl maleimide (NEM) on Cys 27
[1]
  binding relative to P54AR4-83v2 parent: 0.07 ratio
[2]
  binding relative to P54AR4-83v2 parent: 0.23 ratio
[3]
  binding relative to P54AR4-83v2 parent: 0 ratio

B28: P54AR4-83v2 D23C, NEM conjugate (designed binder, not shown: small tags and cut ends)
chain: B1 chain with C3A, D23C
modifications: N-ethyl maleimide (NEM) on Cys 23
[1]
  binding relative to P54AR4-83v2 parent: 0.2 ratio
[2]
  binding relative to P54AR4-83v2 parent: 0.4 ratio
[3]
  binding relative to P54AR4-83v2 parent: 0.02 ratio

B29: P54AR4-83v2 I45C, NEM conjugate (designed binder, not shown: small tags and cut ends)
chain: B1 chain with C3A, I45C
modifications: N-ethyl maleimide (NEM) on Cys 45
[1]
  binding relative to P54AR4-83v2 parent: 1.04 ratio
[2]
  binding relative to P54AR4-83v2 parent: 0.93 ratio
[3]
  binding relative to P54AR4-83v2 parent: 0.91 ratio

B30: P54AR4-83v2 E29C, NEM conjugate (designed binder, not shown: small tags and cut ends)
chain: B1 chain with C3A, E29C
modifications: N-ethyl maleimide (NEM) on Cys 29
[1]
  binding relative to P54AR4-83v2 parent: 1.07 ratio
[2]
  binding relative to P54AR4-83v2 parent: 0.93 ratio
[3]
  binding relative to P54AR4-83v2 parent: 0.89 ratio

B31: P54AR4-83v2 L47C, NEM conjugate (designed binder, not shown: small tags and cut ends)
chain: B1 chain with C3A, L47C
modifications: N-ethyl maleimide (NEM) on Cys 47
[1]
  binding relative to P54AR4-83v2 parent: 1.02 ratio
[2]
  binding relative to P54AR4-83v2 parent: 0.91 ratio
[3]
  binding relative to P54AR4-83v2 parent: 0.92 ratio

B32: P54AR4-83v2 K79C, NEM conjugate (designed binder, not shown: small tags and cut ends)
chain: B1 chain with C3A, K79C
modifications: N-ethyl maleimide (NEM) on Cys 79
[1]
  binding relative to P54AR4-83v2 parent: 0.99 ratio
[2]
  binding relative to P54AR4-83v2 parent: 0.93 ratio
[3]
  binding relative to P54AR4-83v2 parent: 0.9 ratio

B33: P54AR4-83v2 L88C, NEM conjugate (designed binder, not shown: small tags and cut ends)
chain: B1 chain with C3A, L88C
modifications: N-ethyl maleimide (NEM) on Cys 88
[1]
  binding relative to P54AR4-83v2 parent: 1.03 ratio
[2]
  binding relative to P54AR4-83v2 parent: 0.97 ratio
[3]
  binding relative to P54AR4-83v2 parent: 0.95 ratio

B34: P54AR4-83v2 F31C, NEM conjugate (designed binder, not shown: small tags and cut ends)
chain: B1 chain with C3A, F31C
modifications: N-ethyl maleimide (NEM) on Cys 31
[1]
  binding relative to P54AR4-83v2 parent: 0.34 ratio
[2]
  binding relative to P54AR4-83v2 parent: 0.62 ratio
[3]
  binding relative to P54AR4-83v2 parent: 0.04 ratio
